Key:
OAW42 (CD39+) cells = experiment: eATP release in OAW42 (CD39+) cells with IPH5201 and docetaxel; assay type: cell-based; conditions: IPH5201 10 or 50 μg/mL + docetaxel dose range, 30 h, FIG. 3B
Procedure: (§1) OAW42 (CD39+) cells were incubated with 10 or 50 μg/mL of IPH5201 and treated with a dose range of docetaxel. The measure of eATP release was performed 30 h after docetaxel treatment. eATP was measured in the cell culture supernatant with a luminescent-based assay (CellTiter-Glo®) and expressed in Luminescence Arbitrary Unit (AU). Means+/−SD.

[1] = biological target: T1, membrane-bound CD39 on immune cells (Homo sapiens, UniProt P49961); experiment: Free CD39 on monocytes and B cells in patient blood (flow cytometry); assay type: in vivo
T1 construct: To assess free CD39 on monocytes and B cells, blood samples are spiked with an antibody; endogenous in cells; host or cells: monocytes and B cells in patients' blood
T1 sequence (P49961 1-510): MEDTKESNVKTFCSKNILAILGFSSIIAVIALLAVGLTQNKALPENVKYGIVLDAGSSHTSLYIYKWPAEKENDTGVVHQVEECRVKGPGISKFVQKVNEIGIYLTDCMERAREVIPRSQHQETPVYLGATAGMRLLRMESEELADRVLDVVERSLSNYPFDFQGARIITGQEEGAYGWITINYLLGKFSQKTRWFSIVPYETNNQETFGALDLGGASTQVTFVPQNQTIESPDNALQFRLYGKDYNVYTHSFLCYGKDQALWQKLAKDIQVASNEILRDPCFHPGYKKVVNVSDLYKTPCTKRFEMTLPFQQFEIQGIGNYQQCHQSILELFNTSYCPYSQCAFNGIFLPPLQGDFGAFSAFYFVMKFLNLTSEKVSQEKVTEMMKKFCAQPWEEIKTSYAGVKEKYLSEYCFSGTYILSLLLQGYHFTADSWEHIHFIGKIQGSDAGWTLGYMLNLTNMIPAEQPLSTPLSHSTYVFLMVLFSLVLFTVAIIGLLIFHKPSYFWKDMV
Procedure: CD39 occupancy by IPH5201 in samples from patients was determined by assessing free soluble CD39 and free membrane bound CD39.
To assess free CD39 on monocytes and B cells, blood samples are spiked with an antibody having the VH and VL of IPH5201 and a mouse Fc domain and labelled with a fluorochrome. A second non-competing anti-CD39 monoclonal antibody labelled with a distinct fluorochrome is used to bind to a site on CD39 distinct from the capture antibody. CD14, CD19 and CD45 are detected by incubation with anti-CD14, CD19 and CD45 monoclonal antibodies each labelled with a distinct fluorochrome. Binding is detected by flow cytometry.

[2] = biological target: T2, recombinant human CD39 protein (huCD39) (Homo sapiens, UniProt P49961); experiment: eATP release by H1703 (CD39-) cells incubated with recombinant huCD39, with or without IPH5201, then docetaxel; assay type: cell-based; conditions: H1703 cells + huCD39 400 ng/ml + docetaxel 0.1 μM; IPH5201 10 μg/mL; 40 h; FIG. 3A
T2 sequence (P49961 38-478 limits assumed): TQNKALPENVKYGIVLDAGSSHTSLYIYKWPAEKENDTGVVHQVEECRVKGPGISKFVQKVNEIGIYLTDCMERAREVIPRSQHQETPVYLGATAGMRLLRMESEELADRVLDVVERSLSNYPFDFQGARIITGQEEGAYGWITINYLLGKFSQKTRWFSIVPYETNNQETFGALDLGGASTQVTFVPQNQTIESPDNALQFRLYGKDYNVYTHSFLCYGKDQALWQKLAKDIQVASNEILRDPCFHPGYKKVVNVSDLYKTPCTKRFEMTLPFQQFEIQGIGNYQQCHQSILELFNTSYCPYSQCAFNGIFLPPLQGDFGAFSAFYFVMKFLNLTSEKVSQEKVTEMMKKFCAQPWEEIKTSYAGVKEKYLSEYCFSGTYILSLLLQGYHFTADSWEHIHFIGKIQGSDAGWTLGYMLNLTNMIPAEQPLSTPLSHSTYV
Procedure: H1703 (CD39−) cells were incubated with recombinant human CD39 protein (huCD39) (400 ng/ml) to mimic soluble CD39 in tumor microenvironment with or without IPH5201 (humanized anti-CD39 antibody having the respective heavy and light chain amino acid sequences of SEQ ID NOS: 10 and 11) at 10 μg/mL and then treated with docetaxel (0.1 μM). The measure of extracellular ATP (eATP) release was performed 40 h after docetaxel treatment.
as §1

CD39 enzyme activity = biological target: T3, CD39 enzyme activity (Homo sapiens, UniProt P49961); experiment: Tumoral CD39 enzyme activity in patient biopsies (Wachstein-Meisel assay); assay type: in vivo; conditions: for Significant overall decrease in CD39 enzymatic activity?: Day 15 vs screening biopsy
T3 construct: Tumour samples were obtained from patients with pancreatic cancer and assessed for CD39 enzyme activity; from tissue; host or cells: patients' tumour biopsies (tumour, stroma, vasculature), screening vs Day 15
T3 sequence (P49961 1-510): T1 sequence (P49961 1-510)

B1: IPH5201: humanized anti-CD39 antibody having the respective heavy and light chain amino acid sequences of SEQ ID NOS: 10 and 11 (antibody)
heavy: QVQLVQSGAEVKKPGASVKVSCKASGYTFTDYNMHWVRQAPGQRLEWIGYIVPLNGGSTFNQKFKGRATITVDTSARTAYMELSSLRSEDTAVYYCARGGTRFAYWGQGTLVTVSSASTKGPSVFPLAPSSKSTSGGTAALGCLVKDYFPEPVTVSWNSGALTSGVHTFPAVLQSSGLYSLSSVVTVPSSSLGTQTYICNVNHKPSNTKVDKRVEPKSCDKTHTCPPCPAPEAEGAPSVFLFPPKPKDTLMISRTPEVTCVVVDVSHEDPEVKFNWYVDGVEVHNAKTKPREEQYNSTYRVVSVLTVLHQDWLNGKEYKCKVSNKALPSSIEKTISKAKGQPREPQVYTLPPSREEMTKNQVSLTCLVKGFYPSDIAVEWESNGQPENNYKTTPPVLDSDGSFFLYSKLTVDKSRWQQGNVFSCSVMHEALHNHYTQKSLSLSPGK
light: DIVMTQSPDSLAVSLGERATINCRASESVDNFGVSFMYWFQQKPGQPPKLLIYGASNQGSGVPDRFSGSGSGTDFTLTISSLQAEDVAVYYCQQTKEVPYTFGGGTKVEIKRTVAAPSVFIFPPSDEQLKSGTASVVCLLNNFYPREAKVQWKVDNALQSGNSQESVTEQDSKDSTYSLSSTLTLSKADYEKHKVYACEVTHQGLSSPVTKSFNRGEC
eATP accumulation (OAW42 (CD39+) cells): eATP accumulated significantly | free CD39 at C2D1, monocytes ([1]; 100 mg IPH5201 dose, cycle 2 day 1): full rebound | free CD39 at C2D1, monocytes ([1]; 300 mg IPH5201 dose, cycle 2 day 1): partial rebound | free CD39 at C2D1, B-cells ([1]; only the 100 mg IPH5201 dose, cycle 2 day 1): rebound | dose at which IPH5201 saturated binding of membrane-bound CD39 on immune cells ([1]; patient samples, FIG. 11B): 3000 mg | eATP release reduced by added huCD39 [2]: restored | tumoral CD39 enzymatic activity (CD39 enzyme activity; 3000 mg dose of IPH5201): showed a decrease in enzymatic activity | Significant overall decrease in CD39 enzymatic activity? (CD39 enzyme activity; Patient 1, Cohort 1000 mg, NSCLC (squamous)): No | Significant overall decrease in CD39 enzymatic activity? (CD39 enzyme activity; Patient 3, Cohort 1000 mg, Pancreatic): Yes | Significant overall decrease in CD39 enzymatic activity? (CD39 enzyme activity; Patient 4, Cohort 3000 mg, Pancreatic): Yes | Significant overall decrease in CD39 enzymatic activity? (CD39 enzyme activity; Patient 5, Cohort 3000 mg, Pancreatic): Yes | Significant overall decrease in CD39 enzymatic activity? (CD39 enzyme activity; Patient 6, Cohort 3000 mg, Pancreatic): Yes | Significant overall decrease in CD39 enzymatic activity? (CD39 enzyme activity; Patient 7, Cohort 3000 mg, NSCLC (squamous)): Yes | patients in whom tumoral CD39 enzymatic activity decreased (CD39 enzyme activity; patients with available samples): 5/8
